Earlier results in publication PMC3514653 (Neuromodulation : journal of the International …, 2012).

Settings: dog, in vivo; cited from earlier work

B1: BDNF: large growth factor (27 KDa); recombinant-methionyl human brain-derived neurotrophic factor (protein, UniProt P23560 19-247, looked up)
Neurotrophic factor BDNF …: APMKEANIRGQGGLAYPGVRTHGTLESVNGPKAGSRGLTSLADTFEHVIEELLDEDQKVRPNEENNKDADLYTSRVMLSSQVPLEPPLLFLLEEYKNYLDAANMSMRVRRHSDPARRGELSVCDSISEWVTAADKKTAVDMSGGTVTVLEKVPVSKGQLKQYFYETKCNPMGYTKEGCRGIDKRHWNSQCRTTQSYVRALTMDSKKRIGWRFIRIDTSCVCTLTIKRGR
modifications: N-terminal methionine
Q: With B1 as the molecule, how does the “Clearance from the CSF (half-life)” value read?
A: Its value is 42 min.
